T1: RCD1–SRO–TAF4 (RST) domain from RCD1, RCD1-RST_(499–572) (UniProt Q8RY59 499-572)
T1 sequence (looked up): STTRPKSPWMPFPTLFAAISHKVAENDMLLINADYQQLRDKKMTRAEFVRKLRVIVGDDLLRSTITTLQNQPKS


Columns and labels:
[1] = target: RCD1–SRO–TAF4 (RST) domain from RCD1, RCD1-RST_(499–572) (UniProt Q8RY59); assay: ITC
[2] = target: T1, RCD1–SRO–TAF4 (RST) domain from RCD1, …; assay: ITC

| fold difference in Kd between L- and D-enantiomer [1] [fold] | binding result [2] | Molecule |
| --- | --- | --- |
| 500 | – | D-ANAC013_(254–274), synthetic D-peptide (from UniProt F4IED2 254-274) |
| 15 | – | D-ANAC046_(319–338), synthetic D-peptide (from UniProt Q9SQQ6 319-338) |
| 72 | – | D-DREB2A_(255–272), synthetic D-peptide (from UniProt O82132 255-272) |
| – | binds | SSDMFDVDELLRDLNGDD (peptide, UniProt O82132 255-272, looked up) [L-DREB2A_(255–272), synthetic peptide] |

From publication PMC11655355 (Nature, 2024)
